Article PMC11147780

How the values were obtained:
[1] = biological target: 10E8 unmutated common ancestor antibody; assay: SPR; conditions: chain shown with the change;; read off a plot
[2] = biological target: 10E8-iGL3 antibody (fully germline-reverted 10E8); assay: SPR; conditions: chain shown with the change;; read off a plot

Binder | Kd [1] [nM] | Kd [2] [nM]
MPER (scaffold without germline-targeting mutations) 10E8-GT12 (substitutions not printed in the panel; sequence in Extended Data Fig. 1h) (protein) ETGNVTQEDIIRALASPLIKDGMVDEDFAEKVIENESRYPSGLQAKGVGFAIPHVLGDYVRDNAISVGILDKPVNFSEWYQSPDPVPVRVVFMLAIRTWDDITNVMNWIKDVVLDEEFMKRLLNMSDEEIYRQIYTRISKAPNLSGINFSREYVRHLNGS | 180 | 1800
MPER (scaffold without germline-targeting mutations) 10E8-GT10.2 (substitutions not printed in the panel; sequence in Extended Data Fig. 1h) (protein) NVTQEDIIRALASPLIKDGMVDEDFAEYVIARENRSPTGLQAKGVGVAIPHTLGDYVRDNAISVGILDKPVNFSGWYQSPDPVPVRVVFMLAGRTWDDIVIVLKWIKDVILDEEFMKRLLNMSDEEIYRQIYTRISKAPNLSGINFSREYVRHLN | 38 | 11000
MPER (scaffold without germline-targeting mutations) 10E8-GT11 (substitutions not printed in the panel; sequence in Extended Data Fig. 1h) (protein) VTQEDIIRALASPLIKDGMVDEDFAEKVIEQESRYPTGLQAKGVGVAIPHTLGDYVRDNAISVGILDKPVNFEGWYQSPDPVPVRVVFMLAIRTWDDIVNVLNWIKDVILDEEFMKRLLTMSDEEIYRQIYTRISKAPQLSGIHFKREYVRHLG | 1400 | 20000
10E8-GT9.2 epitope scaffold P41Q (protein) EVTQEDIIRALASPLIKDGMVDEDFAEYVIEREKRSPTGLQVKGVGVAIPHTLGEYVRDNAISVGILDKPVNFEGWYQSPDPVPVRVVFMLAGRTWDDIVNVLKWIKDVILDEEFMKRLLTMSDEEIYRQIYTRISKAPGMRGIHFKREYVRHLG |  | 8000
